Some targets named below: CDK1/cyclinB(h) (human) (UniProt P06493); DYRK2(h) (human) (UniProt Q92630); Lck(h) activated (human) (UniProt P06239); MSK2(h) (human) (UniProt O75676); Met(M1268T)(h) (human) (UniProt P08581); PASK(h) (human) (UniProt Q96RG2); PKCι(h) (human) (UniProt P41743); Pim-2(h) (human) (UniProt Q9P1W9); SAPK2a(h) (human) (UniProt Q16539); cKit(D816V)(h) (human) (UniProt P10721); cSRC(h) (human) (UniProt P12931).

What all share (experiment): cell-based or functional assay
Another assay has as its target T1, BrSK2(h) (human) (UniProt Q8IWQ3).
T1 sequence (looked up): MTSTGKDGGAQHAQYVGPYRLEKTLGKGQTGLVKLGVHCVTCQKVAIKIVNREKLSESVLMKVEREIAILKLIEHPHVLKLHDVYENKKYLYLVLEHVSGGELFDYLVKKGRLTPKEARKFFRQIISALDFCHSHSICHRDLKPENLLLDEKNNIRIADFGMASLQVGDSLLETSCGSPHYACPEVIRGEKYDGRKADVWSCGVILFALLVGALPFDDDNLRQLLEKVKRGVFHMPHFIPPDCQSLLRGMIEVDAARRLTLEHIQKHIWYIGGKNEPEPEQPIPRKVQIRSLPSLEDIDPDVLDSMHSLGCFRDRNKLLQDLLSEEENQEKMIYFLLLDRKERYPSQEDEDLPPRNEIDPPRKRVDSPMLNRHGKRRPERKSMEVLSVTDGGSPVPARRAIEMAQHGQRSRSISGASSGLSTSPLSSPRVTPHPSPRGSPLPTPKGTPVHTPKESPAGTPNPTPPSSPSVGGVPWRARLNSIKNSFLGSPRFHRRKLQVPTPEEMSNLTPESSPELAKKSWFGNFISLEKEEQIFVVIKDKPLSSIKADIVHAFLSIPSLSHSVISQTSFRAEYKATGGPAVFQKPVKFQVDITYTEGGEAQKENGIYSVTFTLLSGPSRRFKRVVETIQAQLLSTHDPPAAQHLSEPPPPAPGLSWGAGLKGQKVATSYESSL

In a further assay the target is T2, EphA1(h) (human) (UniProt P21709).
T2 sequence (looked up): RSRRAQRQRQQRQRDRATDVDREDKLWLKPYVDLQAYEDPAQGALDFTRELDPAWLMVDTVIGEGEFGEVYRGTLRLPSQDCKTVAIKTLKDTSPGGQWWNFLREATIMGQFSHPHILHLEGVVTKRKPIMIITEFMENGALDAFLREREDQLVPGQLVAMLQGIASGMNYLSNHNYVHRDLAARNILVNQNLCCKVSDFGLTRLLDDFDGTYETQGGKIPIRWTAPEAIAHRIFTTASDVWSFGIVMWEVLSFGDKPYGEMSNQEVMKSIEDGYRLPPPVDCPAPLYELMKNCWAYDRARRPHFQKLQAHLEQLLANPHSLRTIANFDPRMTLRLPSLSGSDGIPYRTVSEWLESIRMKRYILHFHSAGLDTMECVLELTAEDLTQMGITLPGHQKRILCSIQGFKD

The target of the next assay is T3, Haspin(h) (human) (UniProt Q8TF76).
T3 sequence (looked up): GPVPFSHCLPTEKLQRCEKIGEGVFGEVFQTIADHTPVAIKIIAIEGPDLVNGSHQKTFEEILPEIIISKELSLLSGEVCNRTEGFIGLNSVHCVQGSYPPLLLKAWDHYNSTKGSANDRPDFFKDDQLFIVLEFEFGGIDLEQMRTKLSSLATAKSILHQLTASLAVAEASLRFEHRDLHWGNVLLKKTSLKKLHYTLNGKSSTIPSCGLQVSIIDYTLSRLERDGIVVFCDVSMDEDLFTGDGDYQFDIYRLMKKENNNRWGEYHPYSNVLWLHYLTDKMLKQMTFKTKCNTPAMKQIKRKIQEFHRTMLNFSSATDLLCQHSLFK

For a further assay, the target named is T4, PhKγ2(h) (human) (UniProt P15735).
T4 sequence (looked up): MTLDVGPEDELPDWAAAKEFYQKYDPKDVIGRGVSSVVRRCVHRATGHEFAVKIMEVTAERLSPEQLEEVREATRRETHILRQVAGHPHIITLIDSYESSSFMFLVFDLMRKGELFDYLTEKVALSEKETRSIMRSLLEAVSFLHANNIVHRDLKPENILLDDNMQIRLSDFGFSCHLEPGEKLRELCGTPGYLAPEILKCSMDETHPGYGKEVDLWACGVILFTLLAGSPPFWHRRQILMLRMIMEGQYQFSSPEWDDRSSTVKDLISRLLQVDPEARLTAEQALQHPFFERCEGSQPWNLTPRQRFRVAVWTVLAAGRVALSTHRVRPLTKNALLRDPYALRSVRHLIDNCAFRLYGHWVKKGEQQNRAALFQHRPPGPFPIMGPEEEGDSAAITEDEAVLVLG

In the next assay the target is T5, Rse(h) (human) (UniProt Q06418).
T5 sequence (looked up): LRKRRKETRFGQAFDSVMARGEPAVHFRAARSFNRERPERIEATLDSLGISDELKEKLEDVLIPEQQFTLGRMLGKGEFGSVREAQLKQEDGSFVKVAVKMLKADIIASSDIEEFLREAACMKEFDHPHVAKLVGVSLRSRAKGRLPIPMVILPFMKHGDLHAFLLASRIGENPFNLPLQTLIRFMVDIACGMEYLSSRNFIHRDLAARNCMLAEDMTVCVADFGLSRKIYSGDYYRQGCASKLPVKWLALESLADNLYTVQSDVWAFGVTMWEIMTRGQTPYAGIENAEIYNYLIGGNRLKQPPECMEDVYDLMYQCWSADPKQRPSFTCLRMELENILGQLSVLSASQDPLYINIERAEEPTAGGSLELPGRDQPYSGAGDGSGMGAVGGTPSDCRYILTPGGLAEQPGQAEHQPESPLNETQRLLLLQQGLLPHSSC

Sequence of cKit(D816V)(h) (human) (P10721 544-976 D816V): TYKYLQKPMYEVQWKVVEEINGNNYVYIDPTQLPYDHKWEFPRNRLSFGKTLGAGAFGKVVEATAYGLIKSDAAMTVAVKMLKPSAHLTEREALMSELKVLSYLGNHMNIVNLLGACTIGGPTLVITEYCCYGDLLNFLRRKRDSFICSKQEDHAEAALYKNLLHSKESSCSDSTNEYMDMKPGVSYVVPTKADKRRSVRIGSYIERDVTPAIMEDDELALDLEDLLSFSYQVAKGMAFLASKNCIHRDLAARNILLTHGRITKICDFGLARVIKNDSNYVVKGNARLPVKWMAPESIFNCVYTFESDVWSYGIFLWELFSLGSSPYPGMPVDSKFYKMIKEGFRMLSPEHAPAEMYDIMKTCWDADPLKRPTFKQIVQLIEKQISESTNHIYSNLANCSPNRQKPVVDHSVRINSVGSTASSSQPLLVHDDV
Sequence of SAPK2a(h) (human) (Q16539 whole entry): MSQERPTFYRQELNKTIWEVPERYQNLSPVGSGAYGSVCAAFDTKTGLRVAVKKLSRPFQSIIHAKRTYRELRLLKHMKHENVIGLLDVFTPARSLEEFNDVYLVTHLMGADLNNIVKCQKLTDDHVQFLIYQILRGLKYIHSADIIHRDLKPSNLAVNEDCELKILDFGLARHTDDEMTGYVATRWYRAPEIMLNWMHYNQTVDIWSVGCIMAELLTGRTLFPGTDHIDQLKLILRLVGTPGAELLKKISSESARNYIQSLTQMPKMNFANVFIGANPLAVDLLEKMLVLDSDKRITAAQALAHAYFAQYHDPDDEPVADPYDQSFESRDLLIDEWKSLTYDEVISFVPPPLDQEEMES

Regarding MMI-0500 (peptide), the % activity at 100 µM with BrSK2(h) (human) was 84%; in the assay with CDK1/cyclinB(h) (human) it was 57%; with DYRK2(h) (human), 127%; in the assay with EphA1(h) (human), 40%; with Haspin(h) (human) it was 25%; with Lck(h) activated (human) it was 76%. Moreover, the % activity at 100 µM in the assay with MSK2(h) (human) was 14%; with Met(M1268T)(h) (human), 239%; in the assay with PASK(h) (human) it was 9%; in the assay with PKCι(h) (human) it was 7%; in the assay with PhKγ2(h) (human), 16%; with Pim-2(h) (human), 46%. Moreover, the % activity at 100 µM was 63% with Rse(h) (human), 52% in the assay with SAPK2a(h) (human), 30% with cKit(D816V)(h) (human) and 30% with cSRC(h) (human).
Consider MMI-0300 (peptide), for which the % activity at 100 µM with BrSK2(h) (human) was found to be 83%; in the assay with CDK1/cyclinB(h) (human), 73%; with DYRK2(h) (human) it was 155%; in the assay with EphA1(h) (human), 73%; in the assay with Haspin(h) (human), 48%; with Lck(h) activated (human) it was 243%. Besides, the % activity at 100 µM with MSK2(h) (human) was found to be 56%; in the assay with Met(M1268T)(h) (human), 255%; with PASK(h) (human), 29%; with PKCι(h) (human) it was 68%; with PhKγ2(h) (human), 46%; with Pim-2(h) (human), 76%. Also, the % activity at 100 µM with Rse(h) (human) is 88%; with SAPK2a(h) (human), 90%; in the assay with cKit(D816V)(h) (human) it was 60%; with cSRC(h) (human), 26%.
As for MMI-0400 (peptide), the % activity at 100 µM with BrSK2(h) (human) was 86%; with CDK1/cyclinB(h) (human), 74%; in the assay with DYRK2(h) (human) it was 195%; in the assay with EphA1(h) (human), 61%; with Haspin(h) (human), 36%; with Lck(h) activated (human), 216%. Moreover, the % activity at 100 µM in the assay with MSK2(h) (human) was 52%; with Met(M1268T)(h) (human), 265%; with PASK(h) (human), 28%; in the assay with PKCι(h) (human) it was 46%; in the assay with PhKγ2(h) (human), 38%; with Pim-2(h) (human), 92%. Moreover, the % activity at 100 µM with Rse(h) (human) was found to be 89%; in the assay with SAPK2a(h) (human), 85%; with cKit(D816V)(h) (human) it was 35%; in the assay with cSRC(h) (human), 14%.

(Values after patent publication US20150064134A1.)
